Earlier results on two substances are cited in patent JP2018508186A, “Il−17a結合ポリペプチド” (アフィボディ アクティエボラーグ, priority 2015, dated 2016).

Data set [1] has as its target T1, IL-17A (Homo sapiens, UniProt Q16552). The note with it: from WO2006/013107, WO2012/125680, WO2007/070750; read-out: KD for IL-17A, reported.
The target in data set [2] is T1, IL-17A. The settings on record: from WO2006/013107 and WO2012/125680; read-out: IC50, hIL-6 production neutralising activity, reported.

T1 sequence (Q16552 24-155): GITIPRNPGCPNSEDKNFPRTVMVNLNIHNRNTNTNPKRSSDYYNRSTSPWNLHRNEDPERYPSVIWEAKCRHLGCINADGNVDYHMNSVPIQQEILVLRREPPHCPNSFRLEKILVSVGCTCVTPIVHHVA

As usually defined, the Kd is the equilibrium constant for the complex coming apart. In the case of “イキセキズマブ: anti-IL-17A monoclonal antibody”, the Kd in data set [1] is 0.002 nM.

By IC50 is commonly meant the concentration that gives 50% inhibition. For セクキヌマブ: anti-IL-17A monoclonal antibody, the IC50 in data set [2] is 2.1 ± 0.1 nM. In data set [1], the Kd is 0.122 nM.
